Changes are numbered by the printed parent chain.
T1: human DNA polymerase alpha large subunit, two-hybrid fusion (human, UniProt P09884 1-1462)
T1 construct: DNA polymerase alpha large (catalytic) subunit, human; Two-hybrid fusion; also called HDPa; source: yeast two-hybrid fusion
T1 sequence (looked up): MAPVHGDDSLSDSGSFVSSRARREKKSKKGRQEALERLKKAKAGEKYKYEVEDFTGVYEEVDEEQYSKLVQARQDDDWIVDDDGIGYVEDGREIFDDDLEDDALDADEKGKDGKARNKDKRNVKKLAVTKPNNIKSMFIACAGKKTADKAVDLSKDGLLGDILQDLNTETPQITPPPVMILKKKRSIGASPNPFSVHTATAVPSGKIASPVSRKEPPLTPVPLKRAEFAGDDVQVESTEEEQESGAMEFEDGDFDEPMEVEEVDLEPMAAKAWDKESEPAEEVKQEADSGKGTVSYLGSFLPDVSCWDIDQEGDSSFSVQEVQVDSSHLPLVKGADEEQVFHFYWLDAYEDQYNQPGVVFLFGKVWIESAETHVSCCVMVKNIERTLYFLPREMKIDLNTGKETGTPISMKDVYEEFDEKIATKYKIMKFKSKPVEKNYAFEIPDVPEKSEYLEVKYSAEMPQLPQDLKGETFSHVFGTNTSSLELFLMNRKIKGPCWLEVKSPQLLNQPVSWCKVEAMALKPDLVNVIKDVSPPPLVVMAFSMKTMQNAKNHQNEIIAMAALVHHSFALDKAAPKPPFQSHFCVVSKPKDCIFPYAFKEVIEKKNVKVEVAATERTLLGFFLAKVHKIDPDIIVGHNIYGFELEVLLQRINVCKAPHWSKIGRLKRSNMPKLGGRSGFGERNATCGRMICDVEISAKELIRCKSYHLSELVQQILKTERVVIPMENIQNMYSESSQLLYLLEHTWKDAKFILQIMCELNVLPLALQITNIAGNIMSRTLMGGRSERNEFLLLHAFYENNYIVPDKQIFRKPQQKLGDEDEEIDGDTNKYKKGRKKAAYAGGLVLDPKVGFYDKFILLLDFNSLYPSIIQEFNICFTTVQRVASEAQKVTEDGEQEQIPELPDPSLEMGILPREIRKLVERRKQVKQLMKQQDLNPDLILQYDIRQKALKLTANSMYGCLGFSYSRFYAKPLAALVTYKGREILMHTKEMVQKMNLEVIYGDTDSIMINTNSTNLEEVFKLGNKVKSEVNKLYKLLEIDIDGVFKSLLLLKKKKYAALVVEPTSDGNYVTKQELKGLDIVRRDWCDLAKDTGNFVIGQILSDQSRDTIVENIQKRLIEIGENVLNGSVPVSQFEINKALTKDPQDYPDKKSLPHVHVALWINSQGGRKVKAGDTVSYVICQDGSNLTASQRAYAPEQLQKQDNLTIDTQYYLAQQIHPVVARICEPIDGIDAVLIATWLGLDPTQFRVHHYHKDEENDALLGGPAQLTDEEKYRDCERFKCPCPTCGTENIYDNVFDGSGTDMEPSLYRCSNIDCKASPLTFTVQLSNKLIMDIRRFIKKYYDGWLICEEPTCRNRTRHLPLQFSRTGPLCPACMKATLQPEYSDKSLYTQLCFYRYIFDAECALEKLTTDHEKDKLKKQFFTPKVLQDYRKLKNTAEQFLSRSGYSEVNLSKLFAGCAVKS

T2: human CDC6, two-hybrid fusion in pEG202 (human, UniProt Q99741 1-560)
T2 construct: CDC6, human; clone from A. Dutta, cloned in the BamH1 and Not1 sites of pEG202; also called HuCDC6; hCDC6; source: yeast two-hybrid fusion
T2 sequence (looked up): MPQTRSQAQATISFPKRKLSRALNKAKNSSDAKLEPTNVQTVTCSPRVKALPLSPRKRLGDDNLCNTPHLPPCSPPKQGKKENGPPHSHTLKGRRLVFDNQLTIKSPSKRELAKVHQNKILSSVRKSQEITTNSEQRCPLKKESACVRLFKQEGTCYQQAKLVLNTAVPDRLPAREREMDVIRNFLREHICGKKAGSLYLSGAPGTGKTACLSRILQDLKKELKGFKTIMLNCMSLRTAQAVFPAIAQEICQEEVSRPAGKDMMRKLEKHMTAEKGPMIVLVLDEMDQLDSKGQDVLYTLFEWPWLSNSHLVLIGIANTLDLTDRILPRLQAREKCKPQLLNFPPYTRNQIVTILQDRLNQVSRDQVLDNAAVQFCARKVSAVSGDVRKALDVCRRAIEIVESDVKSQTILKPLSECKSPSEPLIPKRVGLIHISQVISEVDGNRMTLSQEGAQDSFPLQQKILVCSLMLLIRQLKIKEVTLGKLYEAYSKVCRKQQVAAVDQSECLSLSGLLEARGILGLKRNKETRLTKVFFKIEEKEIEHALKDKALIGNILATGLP

T3: Drosophila Cdc6, two-hybrid fusion (Drosophila, UniProt Q9VSM9 1-662)
T3 construct: Cdc6 of Drosophila; construct not described; Two-hybrid fusion; also called DmCdc6; source: yeast two-hybrid fusion
T3 sequence (looked up): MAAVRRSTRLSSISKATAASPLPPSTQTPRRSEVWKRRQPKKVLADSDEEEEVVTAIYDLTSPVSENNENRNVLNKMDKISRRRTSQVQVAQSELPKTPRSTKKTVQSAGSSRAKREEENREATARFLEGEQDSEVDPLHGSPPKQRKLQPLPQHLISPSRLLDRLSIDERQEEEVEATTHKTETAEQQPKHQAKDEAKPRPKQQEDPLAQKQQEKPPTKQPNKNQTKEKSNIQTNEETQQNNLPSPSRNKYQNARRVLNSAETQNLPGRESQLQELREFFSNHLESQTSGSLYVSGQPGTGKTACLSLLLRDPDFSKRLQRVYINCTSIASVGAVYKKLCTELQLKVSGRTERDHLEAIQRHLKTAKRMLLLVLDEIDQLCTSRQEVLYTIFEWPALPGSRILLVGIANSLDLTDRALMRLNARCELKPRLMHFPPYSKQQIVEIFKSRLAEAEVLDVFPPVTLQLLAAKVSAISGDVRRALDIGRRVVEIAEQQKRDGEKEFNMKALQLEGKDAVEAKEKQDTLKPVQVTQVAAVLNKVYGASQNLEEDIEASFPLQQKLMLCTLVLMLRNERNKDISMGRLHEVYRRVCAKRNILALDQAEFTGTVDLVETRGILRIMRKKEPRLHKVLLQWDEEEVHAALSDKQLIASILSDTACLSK

B1: human TTC4, two-hybrid fusion in pJG4.5 (natural protein, UniProt O95801 1-387, looked up)
chain: MEQPGQDPTSDDVMDSFLEKFQSQPYRGGFHEDQWEKEFEKVPLFMSRAPSEIDPRENPDLACLQSIIFDEERSPEEQAKTYKDEGNDYFKEKDYKKAVISYTEGLKKKCADPDLNAVLYTNRAAAQYYLGNFRSALNDVTAARKLKPCHLKAIIRGALCHLELKHFAEAVNWCDEGLQIDAKEKKLLEMRAKADKLKRIEQRDVRKANLKEKKERNQNEALLQAIKARNIRLSEAACEDEDSASEGLGELFLDGLSTENPHGARLSLDGQGRLSWPVLFLYPEYAQSDFISAFHEDSRFIDHLMVMFGETPSWDLEQKYCPDNLEVYFEDEDRAELYRVPAKSTLLQVLQHQRYFVKALTPAFLVCVGSSPFCKNFLRGRKVYQIR
notes: TTC4 (tetratricopeptide repeat protein 4), human; full length gene, insert amplified and cloned in the EcoR1 and Xho sites of pJG4.5; source: yeast two-hybrid fusion
B2: TTC4-651-TA (217NK), two-hybrid fusion in pJG4.5 (natural protein, human, UniProt O95801 1-387, looked up)
chain: B1 chain with N217K
notes: TTC4, human, with a point mutation reported in melanoma samples, made by site-directed mutagenesis in TTC4 (pJG4.5); also called TTC4 codon 217 N to K; source: yeast two-hybrid fusion
B3: TTC4-230AC (77EA), two-hybrid fusion in pJG4.5 (natural protein, human, UniProt O95801 1-387, looked up)
chain: B1 chain with E77A
notes: TTC4, human, with a point mutation reported in melanoma samples, made by site-directed mutagenesis in TTC4 (pJG4.5); also called TTC4 codon 77 E to A; source: yeast two-hybrid fusion
B4: TTC4-125TA (42VD), two-hybrid fusion in pJG4.5 (natural protein, human, UniProt O95801 1-387, looked up)
chain: B1 chain with V42D
notes: TTC4, human, with a point mutation reported in melanoma samples, made by site-directed mutagenesis in TTC4 (pJG4.5); also called TTC4 codon 42 V to D; source: yeast two-hybrid fusion
B5: TTC4-201TG (67IM), two-hybrid fusion in pJG4.5 (natural protein, human, UniProt O95801 1-387, looked up)
chain: B1 chain with I67M
notes: TTC4, human, with a point mutation reported in melanoma samples, made by site-directed mutagenesis in TTC4 (pJG4.5); also called TTC4 codon 67 I to M; source: yeast two-hybrid fusion

Each binder was assayed against T1, human DNA polymerase alpha large … (assay: two-hybrid; quantitative liquid beta-galactosidase assays; values as a percentage of the cdc6/TTC4 interaction). Details: partners not purified.

| Binder | two-hybrid beta-galactosidase, percentage of the cdc6/TTC4 interaction |
| --- | --- |
| B1 | < 5% |

These binders were tested against T4, human HSP70 protein 8 (HSPA8), two-hybrid fusion in pEG202 (human, UniProt P11142 1-646) in the same assay as above. Details: partners not purified.
T4 construct: HSP70 protein 8 (HSPA8), human full length cDNA clone from Origene, cloned in the BamH1 and Xho1 sites of pEG202; also called HuHSP70; source: yeast two-hybrid fusion
T4 sequence (P11142 whole entry, the tested form may be a part): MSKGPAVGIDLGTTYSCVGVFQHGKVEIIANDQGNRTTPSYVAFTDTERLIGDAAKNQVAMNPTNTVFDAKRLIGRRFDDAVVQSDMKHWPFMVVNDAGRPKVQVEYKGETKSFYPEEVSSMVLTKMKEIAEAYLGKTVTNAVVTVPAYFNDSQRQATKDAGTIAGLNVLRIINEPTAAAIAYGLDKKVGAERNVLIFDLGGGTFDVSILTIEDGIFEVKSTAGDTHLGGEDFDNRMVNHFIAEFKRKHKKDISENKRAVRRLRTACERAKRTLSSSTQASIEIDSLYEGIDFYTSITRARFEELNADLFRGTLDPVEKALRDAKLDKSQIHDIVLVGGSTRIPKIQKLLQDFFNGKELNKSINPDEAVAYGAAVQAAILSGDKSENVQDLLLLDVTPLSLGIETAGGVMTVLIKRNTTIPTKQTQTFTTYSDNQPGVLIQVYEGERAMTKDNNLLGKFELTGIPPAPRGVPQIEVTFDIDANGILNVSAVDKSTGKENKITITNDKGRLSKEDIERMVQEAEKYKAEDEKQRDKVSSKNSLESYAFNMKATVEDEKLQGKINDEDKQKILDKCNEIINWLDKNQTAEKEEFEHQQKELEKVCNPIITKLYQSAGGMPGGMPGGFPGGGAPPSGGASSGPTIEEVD

| Binder | two-hybrid beta-galactosidase, percentage of the cdc6/TTC4 interaction |
| --- | --- |
| B1 | 80% |
| B2 | 70% |
| B3 | 70% |
| B4 | 65% |
| B5 | 70% |

Each binder was assayed against T5, human HSP90 protein 1 beta (HSPCB), two-hybrid fusion in pEG202 (human, UniProt P08238 1-724) in the same assay as above. Details: partners not purified.
T5 construct: HSP90 protein 1 beta (HSPCB), human full length cDNA clone from Origene, cloned in the Not1 and Xho1 sites of pEG202; also called HuHSP90; huHSP90; source: yeast two-hybrid fusion
T5 sequence (P08238 whole entry, the tested form may be a part): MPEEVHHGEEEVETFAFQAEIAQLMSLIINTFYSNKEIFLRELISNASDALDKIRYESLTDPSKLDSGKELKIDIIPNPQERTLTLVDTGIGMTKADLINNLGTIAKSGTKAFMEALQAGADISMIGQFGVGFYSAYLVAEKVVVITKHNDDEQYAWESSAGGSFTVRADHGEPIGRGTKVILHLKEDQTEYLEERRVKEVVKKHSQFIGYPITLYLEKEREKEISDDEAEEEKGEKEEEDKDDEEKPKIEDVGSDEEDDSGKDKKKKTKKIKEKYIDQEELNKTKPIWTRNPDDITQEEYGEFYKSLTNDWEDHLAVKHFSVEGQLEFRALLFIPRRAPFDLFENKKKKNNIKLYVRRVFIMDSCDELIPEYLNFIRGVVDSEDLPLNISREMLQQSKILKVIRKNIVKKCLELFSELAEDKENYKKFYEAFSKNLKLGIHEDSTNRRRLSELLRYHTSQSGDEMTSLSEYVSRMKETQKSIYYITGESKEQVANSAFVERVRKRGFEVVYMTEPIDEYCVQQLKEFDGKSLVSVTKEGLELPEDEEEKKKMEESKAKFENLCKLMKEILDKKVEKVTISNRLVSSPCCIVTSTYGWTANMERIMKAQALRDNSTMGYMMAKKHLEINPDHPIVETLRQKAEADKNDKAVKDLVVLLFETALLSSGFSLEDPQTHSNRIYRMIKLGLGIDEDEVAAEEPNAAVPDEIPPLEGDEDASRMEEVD

| Binder | two-hybrid beta-galactosidase, percentage of the cdc6/TTC4 interaction |
| --- | --- |
| B1 | 100% |
| B2 | 90% |
| B3 | 75% |
| B4 | 80% |
| B5 | 90% |

Each binder was assayed against T2, human CDC6, two-hybrid fusion in pEG202 in the same assay as above. Details: partners not purified.

| Binder | two-hybrid beta-galactosidase, percentage of the cdc6/TTC4 interaction |
| --- | --- |
| B1 | 100% |
| B2 | < 5% |
| B3 | < 5% |
| B4 | 95% |
| B5 | 95% |

These binders were tested against T3, Drosophila Cdc6, two-hybrid fusion (assay: two-hybrid; TTC4 with Drosophila proteins; data not shown). Details: partners not purified.

| Binder | two-hybrid strength relative to TTC4 with human CDC6 |
| --- | --- |
| B1 | 50% |

The binders below were run against T6, Drosophila Hsp90, two-hybrid fusion (Drosophila, UniProt P02828 1-717) in the same assay as above. Details: partners not purified.
T6 construct: Hsp90 (Hsp83) of Drosophila; construct not described; Two-hybrid fusion; also called DmHsp90; source: yeast two-hybrid fusion
T6 sequence (P02828 whole entry, the tested form may be a part): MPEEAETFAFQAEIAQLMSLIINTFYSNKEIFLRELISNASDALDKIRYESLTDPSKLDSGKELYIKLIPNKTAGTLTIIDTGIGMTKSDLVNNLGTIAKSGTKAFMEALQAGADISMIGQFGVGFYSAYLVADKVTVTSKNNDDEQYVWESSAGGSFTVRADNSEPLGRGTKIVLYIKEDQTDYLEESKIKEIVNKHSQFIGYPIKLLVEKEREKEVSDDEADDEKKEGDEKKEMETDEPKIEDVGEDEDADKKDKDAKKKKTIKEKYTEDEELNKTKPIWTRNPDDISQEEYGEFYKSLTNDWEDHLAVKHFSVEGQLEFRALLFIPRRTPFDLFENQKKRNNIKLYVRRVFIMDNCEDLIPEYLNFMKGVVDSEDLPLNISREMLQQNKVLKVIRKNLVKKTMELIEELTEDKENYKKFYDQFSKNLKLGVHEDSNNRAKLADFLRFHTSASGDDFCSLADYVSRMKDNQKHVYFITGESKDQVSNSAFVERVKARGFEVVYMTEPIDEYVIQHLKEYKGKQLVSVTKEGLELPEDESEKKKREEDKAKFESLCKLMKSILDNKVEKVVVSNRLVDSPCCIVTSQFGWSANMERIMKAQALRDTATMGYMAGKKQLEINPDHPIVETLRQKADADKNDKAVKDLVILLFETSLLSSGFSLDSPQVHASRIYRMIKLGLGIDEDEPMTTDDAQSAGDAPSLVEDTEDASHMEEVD

| Binder | two-hybrid strength relative to TTC4 with huHSP90 |
| --- | --- |
| B1 | 50% |

From publication PMC2253824, “The Human TPR Protein TTC4 Is a Putative Hsp90 Co-Chaperone Which Interacts with CDC6 and Shows Alterations in Transformed Cells” (PLoS ONE, 2008)
